In this assay the target is Mus musculus XRCC2 full length (Mus musculus) (UniProt Q9CX47). Nature of the assay: two-hybrid; same mated yeast; liquid β-galactosidase assay with ONPG as substrate, in triplicate, constructs in both the GAL4 activating and DNA binding domains.
Sequence of UniProt Q9CX47 (Q9CX47 whole entry, the tested form may be a part): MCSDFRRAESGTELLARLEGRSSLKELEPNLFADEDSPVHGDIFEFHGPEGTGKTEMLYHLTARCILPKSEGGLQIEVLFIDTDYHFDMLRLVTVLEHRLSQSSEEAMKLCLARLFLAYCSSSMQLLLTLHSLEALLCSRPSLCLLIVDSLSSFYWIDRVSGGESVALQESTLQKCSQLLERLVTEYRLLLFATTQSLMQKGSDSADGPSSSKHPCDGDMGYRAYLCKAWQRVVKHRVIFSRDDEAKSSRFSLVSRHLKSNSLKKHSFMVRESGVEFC

In the case of “Mus musculus RAD51DΔ8 (splice variant product, exon 8 excluded) (from UniProt O55230 4-223) (natural protein)”, the percent of the level of full-length RAD51D (β-galactosidase activity) was 36%.

These data come from paper PMC2667185.
